Results on 24 molecules are retold here after patent publication US20190169286A1 (Chugai, published 2019).

To fix the notation:
B1: H1028/L0395 (antibody, human IgG1, kappa, name in Kabat numbering, V domains shown)
VH: QVQLVESGGGLVQPGGSLRLSCAASGFTFSDYYLSWVRQAPGKGLEWVGLIRNKDNYHHPEYSASVKGRFTISRDDSKNSLYLTMSDLKTEDTAVYYCARENHRYDVELAYWGQGTLVTVSS
VL: DIQMTQSPSSLSASVGDRVTITCRASEIIYSYLAWYQQKPGKAPKLLIYKAKTHADGVPSRFSGSGSGTDFTFTISSLQPEDIATYYCKHHFGFPRTFGQGTKVEIKR
B2: H1050/L0442 (antibody, human IgG1, kappa, name in Kabat numbering, V domains shown)
VH: B1 VH with D31E, H59T
VL: B1 VL with S31E
notes: L442 = L395 + S31E
B3: H1029/L0395 (antibody, human IgG1, kappa, name in Kabat numbering, V domains shown)
VH: B1 VH with S30D, D31K, Y57H, H59T
VL: B1 VL
B4: H1047/L0395 (antibody, human IgG1, kappa, name in Kabat numbering, V domains shown)
VH: B1 VH with S30D, D31K, Y57G, H58Y, H59T
VL: B1 VL
B5: H1041/L0395 (antibody, human IgG1, kappa, name in Kabat numbering, V domains shown)
VH: B1 VH with D31E, Y57G, H58Y
VL: B1 VL
B6: H1029/L0442 (antibody, human IgG1, kappa, name in Kabat numbering, V domains shown)
VH: B1 VH with S30D, D31K, Y57H, H59T
VL: B1 VL with S31E
notes: L442 = L395 + S31E
B7: H1049/L0395 (antibody, human IgG1, kappa, name in Kabat numbering, V domains shown)
VH: B1 VH with S30D, D31K, H59T
VL: B1 VL
B8: H1037/L0442 (antibody, human IgG1, kappa, name in Kabat numbering, V domains shown)
VH: B1 VH with S30D, D31K
VL: B1 VL with S31E
notes: L442 = L395 + S31E
B9: H1028/L0442 (antibody, human IgG1, kappa, name in Kabat numbering, V domains shown)
VH: B1 VH
VL: B1 VL with S31E
notes: L442 = L395 + S31E
B10: H1041/L0442 (antibody, human IgG1, kappa, name in Kabat numbering, V domains shown)
VH: B1 VH with D31E, Y57G, H58Y
VL: B1 VL with S31E
notes: L442 = L395 + S31E
B11: H1032/L0442 (antibody, human IgG1, kappa, name in Kabat numbering, V domains shown)
VH: B1 VH with S30D, D31K, Y57G, H58Y
VL: B1 VL with S31E
notes: L442 = L395 + S31E
B12: H1046/L0395 (antibody, human IgG1, kappa, name in Kabat numbering, V domains shown)
VH: B1 VH with D31E
VL: B1 VL
B13: H1032/L0395 (antibody, human IgG1, kappa, name in Kabat numbering, V domains shown)
VH: B1 VH with S30D, D31K, Y57G, H58Y
VL: B1 VL
B14: H1037/L0395 (antibody, human IgG1, kappa, name in Kabat numbering, V domains shown)
VH: B1 VH with S30D, D31K
VL: B1 VL
B15: H1049/L0442 (antibody, human IgG1, kappa, name in Kabat numbering, V domains shown)
VH: B1 VH with S30D, D31K, H59T
VL: B1 VL with S31E
notes: L442 = L395 + S31E
B16: H1050/L0395 (antibody, human IgG1, kappa, name in Kabat numbering, V domains shown)
VH: B1 VH with D31E, H59T
VL: B1 VL
B17: H1040/L0395 (antibody, human IgG1, kappa, name in Kabat numbering, V domains shown)
VH: B1 VH with D31E, Y57H
VL: B1 VL
B18: VH3-F1168m / L(WT) (antibody)
heavy: QVQLQESGPGLVKPSETLSLTCAVSGHSISHDHAWSWVRQPPGEGLEWIGFISYSGITNYNPSLQGRVTISRDNSKNTLYLQMNSLRAEDTAVYYCARSLARTTAMDYWGEGTLVTVSSASTKGPSVFPLAPSSKSTSGGTAALGCLVKDYFPEPVTVSWNSGALTSGVHTFPAVLQSSGLYSLSSVVTVPSSSLGTQTYICNVNHKPSNTKVDKKVEPKSCDKTHTCPPCPAPELLGGPSVFLFPPKPKDTLMISRTPEVTCVVVDVSHEDPEVKFNWYVDGVEVHNAKTKPREEQYNSTYRVVSVLTVLHQDWLNGKEYKCKVSNKALPAPIEKTISKAKGQPREPQVYTLPPSREEMTKNQVSLTCLVKGFYPSDIAVEWESNGQPENNYKTTPPVLDSDGSFFLYSKLTVDKSRWQQGNVFSCSVMHEALHAHYTRKELSLSP
light: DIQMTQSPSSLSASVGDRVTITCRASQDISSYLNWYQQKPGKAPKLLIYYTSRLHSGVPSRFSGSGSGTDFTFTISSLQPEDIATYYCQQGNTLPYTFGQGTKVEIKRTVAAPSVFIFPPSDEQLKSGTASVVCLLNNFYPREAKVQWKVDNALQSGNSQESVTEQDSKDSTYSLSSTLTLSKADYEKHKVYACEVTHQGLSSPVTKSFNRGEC
notes: Fc: N434A/Q438R/S440E
B19: VH3-F1847m / L(WT) (antibody)
heavy: B18 heavy with Y438T
light: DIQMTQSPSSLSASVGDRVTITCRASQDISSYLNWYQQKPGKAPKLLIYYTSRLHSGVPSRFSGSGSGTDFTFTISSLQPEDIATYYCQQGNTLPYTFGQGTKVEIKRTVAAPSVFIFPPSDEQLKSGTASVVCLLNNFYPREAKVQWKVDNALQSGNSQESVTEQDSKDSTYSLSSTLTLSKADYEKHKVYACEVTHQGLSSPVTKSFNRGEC
notes: Fc: N434A/Y436T/Q438R/S440E
B20: VH3-F1886m / L(WT) (antibody)
heavy: B18 heavy with M430L, Y438T
light: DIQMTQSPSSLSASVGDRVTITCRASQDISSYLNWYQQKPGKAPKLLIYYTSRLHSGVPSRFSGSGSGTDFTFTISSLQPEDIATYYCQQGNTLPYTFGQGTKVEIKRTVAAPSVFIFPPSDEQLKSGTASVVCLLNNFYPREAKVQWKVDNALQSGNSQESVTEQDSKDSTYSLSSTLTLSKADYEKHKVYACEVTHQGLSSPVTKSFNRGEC
notes: Fc: M428L/N434A/Y436T/Q438R/S440E
B21: VH3-F1927m / L(WT) (antibody)
heavy: B18 heavy with M430L
light: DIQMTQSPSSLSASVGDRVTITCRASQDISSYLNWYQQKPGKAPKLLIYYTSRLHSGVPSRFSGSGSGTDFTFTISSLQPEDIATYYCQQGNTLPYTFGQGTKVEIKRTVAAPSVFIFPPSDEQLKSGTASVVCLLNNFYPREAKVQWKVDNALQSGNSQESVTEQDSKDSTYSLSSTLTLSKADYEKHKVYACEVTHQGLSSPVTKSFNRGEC
notes: Fc: M428L/N434A/Q438R/S440E
B22: VH3-F1848m / L(WT) (antibody)
heavy: B18 heavy with Y438V
light: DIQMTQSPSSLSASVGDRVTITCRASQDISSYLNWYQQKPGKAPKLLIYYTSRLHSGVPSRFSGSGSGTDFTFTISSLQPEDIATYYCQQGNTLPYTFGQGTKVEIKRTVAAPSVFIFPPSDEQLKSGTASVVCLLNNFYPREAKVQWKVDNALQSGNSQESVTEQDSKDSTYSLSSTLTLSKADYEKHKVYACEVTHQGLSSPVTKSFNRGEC
notes: Fc: N434A/Y436V/Q438R/S440E
B23: VH3-YTE / L(WT) (antibody, human IgG1, kappa)
heavy: B18 heavy with M254Y, S256T, T258E, A436N, R440Q, E442S
light: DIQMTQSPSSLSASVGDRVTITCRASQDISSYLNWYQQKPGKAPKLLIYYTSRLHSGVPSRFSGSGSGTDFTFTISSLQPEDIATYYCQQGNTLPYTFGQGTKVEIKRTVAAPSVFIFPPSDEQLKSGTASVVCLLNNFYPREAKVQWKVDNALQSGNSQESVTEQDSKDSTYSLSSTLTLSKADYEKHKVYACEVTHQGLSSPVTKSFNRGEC
notes: Fc: M252Y/S254T/T256E
B24: VH3-F1889m / L(WT) (antibody)
heavy: B18 heavy with M430L, Y438V
light: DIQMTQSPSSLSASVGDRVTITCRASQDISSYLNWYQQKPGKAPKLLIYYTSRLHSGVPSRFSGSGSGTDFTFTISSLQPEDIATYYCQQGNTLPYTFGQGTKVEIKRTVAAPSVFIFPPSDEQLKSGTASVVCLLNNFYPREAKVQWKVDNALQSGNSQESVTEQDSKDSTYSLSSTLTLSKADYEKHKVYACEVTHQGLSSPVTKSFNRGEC
notes: Fc: M428L/N434A/Y436V/Q438R/S440E

Numbering of substitutions follows the chain as printed. In names and notes the source's numbering stands.

T1 sequence (P10145 23-99 limits assumed): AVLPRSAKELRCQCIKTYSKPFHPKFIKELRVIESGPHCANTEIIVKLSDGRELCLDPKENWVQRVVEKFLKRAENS

One test has as its target T1, human IL-8 (human, UniProt P10145 23-99, limits assumed).
T1 construct: also called hIL-8; hIL8
The test is described as follows: SPR Biacore T200, Protein A/G capture, pH 5.8, 37C.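 Further: antibodies captured by Protein A/G amine-coupled onto a CM4 sensor chip, with kinetic parameters derived using Biacore T200 Evaluation Software.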
Procedure: (§1) An appropriate amount of Protein A/G (PIERCE) was immobilized onto the Sensor chip CM4 (GE Healthcare) by the amine coupling method and the antibodies of interest were captured. […] To regenerate the sensor chip, 25 mM NaOH and 10 mM glycine-HCl (pH 1.5) were used. […] The BIACORE T200 Evaluation Software (GE Healthcare) was used to calculate each parameter.
The molecule B1 yielded a Kd of 210 nM.

With B2, the Kd came out at 54 nM and the koff is 0.0076 s⁻¹.

B3 displayed a Kd of 55 nM and a koff of 0.008 s⁻¹.

B4 gave a Kd of 47 nM and a dissociation rate constant (koff) of 0.006 s⁻¹.

B5 came in with a Kd of 71 nM and a koff of 0.013 s⁻¹.

For B6, binding was put at a Kd of 48 nM and the koff was 0.0085 s⁻¹.

Regarding B7, binding was put at a Kd of 38 nM and the koff came to 0.004 s⁻¹.

With B8, the Kd came to 61 nM and the koff turned out to be 0.015 s⁻¹.

As for B9, the equilibrium dissociation constant (Kd) came to 140 nM and the off-rate (koff) came to 0.13 s⁻¹.

Take B10: binding was put at a Kd of 61 nM and the koff came to 0.015 s⁻¹.

For the molecule B11, the Kd is 43 nM and the koff came out at 0.0059 s⁻¹.

The molecule B12 had a Kd of 160 nM and a dissociation rate constant (koff) of 0.012 s⁻¹.

For the molecule B13, the Kd came to 50 nM and the koff turned out to be 0.0041 s⁻¹.

Regarding B14, binding was put at a Kd of 70 nM and the koff is 0.015 s⁻¹.

B15 yielded a Kd of 33 nM and a koff of 0.0045 s⁻¹.

For B16, the Kd was 77 nM and the koff was 0.005 s⁻¹.

The molecule B17 yielded a Kd of 240 nM and a koff of 0.046 s⁻¹.

In the next test the target is T1, human IL-8. The test is described as follows: SPR Biacore T200, Protein A/G capture, pH 7.4, 40C.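 Further: antibodies captured via Protein A/G, which was amine-coupled to a CM4 sensor chip.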
Procedure: as §1
For the molecule B1, the Kd was 0.18 nM.

Turning to B2, the affinity, expressed as Kd, was 0.099 nM.

Take B3: binding was put at a Kd of 0.086 nM.

In turn, B4 yielded a Kd of 0.095 nM.

Take B5: the Kd stood at 0.08 nM.

B6: the Kd is 0.14 nM.

On to B7, for which the Kd was 0.025 nM.

As to B8, the dissociation constant Kd was 0.13 nM.

Molecule B9 showed a Kd of 0.24 nM. This Kd lies about 1.8-fold higher than the previous one.

Take B10: the Kd came out at 0.12 nM.

In turn, B11 displayed a Kd of 0.078 nM.

Molecule B12 yielded a Kd of 0.18 nM.

Consider B13, for which binding was put at a Kd of 0.042 nM.

Consider B14, for which binding was characterised by a dissociation constant (Kd) of 0.094 nM. This Kd lies about 2.2-fold higher than the previous one.

B15 showed a dissociation constant Kd of 0.053 nM. This Kd lies about 1.8-fold lower than the previous one.

As for B16, binding was characterised by a dissociation constant (Kd) of 0.066 nM.

The molecule B17 had a Kd of 0.26 nM.

In a further test the target is T2, human FcRn (human, UniProt P55899 24-290; P61769 21-119, limits assumed).
T2 construct: also called hFcRn
T2 sequence (P55899 24-290 limits assumed, chain 1 of 2): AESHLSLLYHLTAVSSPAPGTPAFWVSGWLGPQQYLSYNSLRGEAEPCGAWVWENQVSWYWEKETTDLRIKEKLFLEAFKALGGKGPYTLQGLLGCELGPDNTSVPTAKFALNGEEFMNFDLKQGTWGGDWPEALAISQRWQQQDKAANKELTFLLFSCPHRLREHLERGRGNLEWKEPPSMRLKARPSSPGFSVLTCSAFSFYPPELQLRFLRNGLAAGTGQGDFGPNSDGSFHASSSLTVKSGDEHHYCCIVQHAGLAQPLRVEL
T2 sequence (P61769 21-119 limits assumed, chain 2 of 2): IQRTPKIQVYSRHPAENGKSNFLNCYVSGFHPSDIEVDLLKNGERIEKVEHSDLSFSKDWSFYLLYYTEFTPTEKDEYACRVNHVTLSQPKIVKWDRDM
The test can be described thus: SPR Biacore T100, Ab captured on Protein L, FcRn analyte, pH 6.0, 25C. As for the experimental part: Antibodies containing VH3-IgG1m or an above-mentioned variant as the heavy chain and L(WT) (SEQ ID NO:1) as the light chain were produced by the method of Reference Example 2, and the binding activity toward human FcRn was evaluated as follows.
Kinetic analyses of human FcRn and each of the antibodies were carried out using BIACORE T100 (GE Healthcare). […] For the running buffer, 50 mM sodium phosphate, 150 mM NaCl, and 0.05% (w/v) Tween 20 at pH 6.0 was used, and the respective buffer was also used to dilute FcRn. […] All measurements were carried out at 25° C.
With B18, the Kd is 410 nM.

B19 had a Kd of 367 nM.

In turn, B20 yielded a Kd of 108 nM.

In turn, B21 returned a Kd of 125 nM. The Kd values of the last two molecules are within 1.5-fold of each other.

B22 showed a dissociation constant Kd of 295 nM. Compared with the last molecule, the Kd is about 2.4-fold higher.

The molecule B23 yielded a Kd of 148 nM.

B24 had a Kd of 103 nM. The Kd values of the last two molecules are within 1.5-fold of each other.
